Measurements reported in patent US20090081183A1, “HIV Transcription Repressor Complex and Compositions and Methods Based Thereon” (priority 1997, published 2009).
Like-named read-outs stand apart in the source and are kept apart here.

T1: LSF (Homo sapiens, UniProt Q12800, A491Q)
T1 construct: host or cells: in vitro transcription/translation in rabbit reticulocyte lysate (T7 RNA polymerase)
T1 sequence (Q12800 1-502 A491Q): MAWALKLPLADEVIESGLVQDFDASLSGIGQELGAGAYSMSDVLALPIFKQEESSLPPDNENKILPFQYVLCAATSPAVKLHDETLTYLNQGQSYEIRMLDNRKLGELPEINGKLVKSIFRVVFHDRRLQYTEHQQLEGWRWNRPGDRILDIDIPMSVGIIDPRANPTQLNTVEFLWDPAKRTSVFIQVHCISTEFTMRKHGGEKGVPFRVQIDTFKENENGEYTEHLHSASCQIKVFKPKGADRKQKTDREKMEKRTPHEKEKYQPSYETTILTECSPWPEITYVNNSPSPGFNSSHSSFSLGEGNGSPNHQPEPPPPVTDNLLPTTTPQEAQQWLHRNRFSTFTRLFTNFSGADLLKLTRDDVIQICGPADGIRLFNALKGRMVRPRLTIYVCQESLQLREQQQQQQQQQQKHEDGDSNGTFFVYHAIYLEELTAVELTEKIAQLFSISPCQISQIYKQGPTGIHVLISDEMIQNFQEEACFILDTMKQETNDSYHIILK

B1: LSF: lymphoid transcription factor (LBF-1, CP-2) that represses LTR-driven transcription (SEQ ID NO: 5) (protein, listed as Homo sapiens)
chain: T1 sequence (Q12800 1-502 A491Q)
B2: YZnFs: GST fused to all four YY1 zinc fingers without the YY1 amino-terminal region (protein)
chain: TIACPHKGCTKMFRDNSAMRKHLHTHGPRVHVCAECGKAFVESSKLKRHQLVHTGEKPFQCTFEGCGKRFSLDFNLRTHVRIHTGDRPYVCPFDGCNKKFAQSTNLKSHILTHAKAKNNQ
modifications: left off: a dimerising Fc or GST
notes: GST fused to all four YY1 zinc fingers without the YY1 amino-terminal region

Legend:
[1] = system: HIV-1 LTR; assay: Tat-activated integrated LTR-CAT reporter assay in HeLa-CD4-LTR cells; format: cell-based
Protocol: Cell lines transfections and assays. Transfections of HeLa cells were performed as previously described (49). HeLa-CD4-LTR (9) cells were grown in DMEM supplemented with 10% FCS and transfected with 20 μg plasmid DNA (prepared using EndoFree plasmid kit, Qiagen, Valencia, Calif.) by calcium phosphate coprecipitation as per manufacturer's instructions (ProFection system, Promega, Madison, Wis.). After 30 minutes at room temperature, the solution was added to the cells (2.5-4×10^5 cells/plate). Twelve hours after transfection, the cells were washed with PBS and fed fresh medium. Forty-eight hours later the cells were harvested, cellular extracts prepared, and CAT assays performed as previously described (49). To control for the effect of transcription factor overexpression on general cellular promoters a reporter construct driven by the beta-actin promoter, pH[…]-actin-luciferase (66), was used in cotransfection and CAT expression normalized for luciferase activity. Other plasmids used have been previously described (2, 49). […] Up to 30 μl of cellular extract (normalized for protein concentration) in a final volume of 130 μl was used for luciferase reactions.
The LTR reporter carried by HeLa-CD4-LTR cell line exists within the native chromatin structure of the genome. […]

[2] = system: RCS oligonucleotide (−10 to +27 of HIV-1 LTR); format: binding
[3] = target: T1, LSF; assay: In vitro protein interaction mapping: GST-YY1/GFI-1 chimeras retaining 35S-labeled LSF; format: binding; details: glutathione-agarose capture, 35S-methionine labeled LSF
Text: In vitro protein interaction mapping: Glutathione-S-transferase (GST)-YY1/GFI-1 chimeras (17) and G3ST-LSF deletion (54, 55) constructs were expressed and harvested in E. coli as previously described. Proteins were visualized by Coomassie brilliant blue staining and protein content was normalized by densitometric analysis. LSF was transcribed and translated in vitro by T7 RNA polymerase in rabbit reticulocyte (Promega, Madison, Wis.) in the presence of ^35S-methionine as per manufacturer's instruction (54). Following capture of GST-YY1/GFI-1 chimera proteins on glutathione-agarose beads, equal volumes of beads were incubated with ^35S-methionine labeled LSF in incubation buffer (17) for 1 hour at 4° C. The beads were washed in incubation buffer/100 mM KCl and resuspended in 20 μl 2×SDS loading buffer. Retained LSF was separated in a 10% SDS gel, dried, and visualized by autoradiography. Similarly, YY1 was transcribed and translated in vitro, incubated with captured GST-LSF constructs, and retained YY1 was by autoradiography following electrophoresis.
YY1 DNA-binding activity and many YY1-protein interactions map to the carboxyl-terminal zinc fingers of the molecule. Therefore, YY1 interaction domains were mapped using chimeric YY1 recombinants (FIG. 2c). […]

| Molecule | Tat-activated CAT expression from integrated LTR reporter ([1]; 200 ng pAR-Tat, 2.5 μg CMV expression plasmid, normalized to β-actin-luciferase) | Effect on YY1-mediated repression of integrated LTR-CAT expression ([1]; with YY1 transfection, trichostatin-A added to culture medium (data not shown)) | Complex formation with the RCS in EMSA ([2]; 10 ng protein alone) | Complex formation with the RCS in EMSA ([2]; 20 ng protein alone) | Binding of LSF in vitro by GST-fused construct [3] |
| --- | --- | --- | --- | --- | --- |
| B1 | had no effect on expression of CAT | augmented repression mediated by YY1 | formed a diffuse faintly visible EMSA band | induced a very prominent protein-DNA complex |  |
| B2 |  |  |  |  | binds LSF with equal avidity to intact GST-YY1 |
